Paper PMC4443670, “The C-terminal region of the motor protein MCAK controls its structure and activity through a conformational switch” (eLife, 2015)
Numbering of substitutions follows the chain as printed. Numbers in names are those of the source.

B1: GST-CT_(R716A) domain (domain or fragment, human, UniProt Q99661 700-725, looked up)
chain: VIKALRLAMQLEEQASAQISSKKRPQ
notes: MCAK (Kif2c) CT domain, human, residues 700-725 as stated (the printed primers of the parent encode 701-725); source: E. coli BL21(DE3) Codon plus, purified (glutathione-sepharose, gel filtration)
B2: GST-CT_(I718A) domain (domain or fragment, human, UniProt Q99661 700-725, looked up)
chain: VIKALRLAMQLEEQASRQASSKKRPQ
notes: as for B1
B3: GST-CT_(S715A) domain (domain or fragment, human, UniProt Q99661 700-725, looked up)
chain: VIKALRLAMQLEEQAARQISSKKRPQ
notes: as for B1
B4: His-MCAK (1-725), full-length MCAK (natural protein, human, UniProt Q99661 1-725, looked up)
chain: MAMDSSLQARLFPGLAIKIQRSNGLIHSANVRTVNLEKSCVSVEWAEGGATKGKEIDFDDVAAINPELLQLLPLHPKDNLPLQENVTIQKQKRRSVNSKIPAPKESLRSRSTRMSTVSELRITAQENDMEVELPAAANSRKQFSVPPAPTRPSCPAVAEIPLRMVSEEMEEQVHSIRGSSSANPVNSVRRKSCLVKEVEKMKNKREEKKAQNSEMRMKRAQEYDSSFPNWEFARMIKEFRATLECHPLTMTDPIEEHRICVCVRKRPLNKQELAKKEIDVISIPSKCLLLVHEPKLKVDLTKYLENQAFCFDFAFDETASNEVVYRFTARPLVQTIFEGGKATCFAYGQTGSGKTHTMGGDLSGKAQNASKGIYAMASRDVFLLKNQPCYRKLGLEVYVTFFEIYNGKLFDLLNKKAKLRVLEDGKQQVQVVGLQEHLVNSADDVIKMIDMGSACRTSGQTFANSNSSRSHACFQIILRAKGRMHGKFSLVDLAGNERGADTSSADRQTRMEGAEINKSLLALKECIRALGQNKAHTPFRESKLTQVLRDSFIGENSRTCMIATISPGISSCEYTLNTLRYADRVKELSPHSGPSGEQLIQMETEEMEACSNGALIPGNLSKEEEELSSQMSSFNEAMTQIRELEEKAMEELKEIIQQGPDWLELSEMTEQPDYDLETFVNKAESALAQQAKHFSALRDVIKALRLAMQLEEQASRQISSKKRPQ
notes: MCAK (Kif2c), human, residues 1-725, full length; Cloned in the pFL vector; also called wild type MCAK; Kif2c; source: Sf9 (baculovirus), purified
B5: His-MCAK_(S715E), full length (natural protein, human, UniProt Q99661 1-725, looked up)
chain: B4 chain with S715E
notes: MCAK (Kif2c), human, residues 1-725, full length; also called full-length MCAK_(S715E); source: Sf9 (baculovirus), purified
B6: His-MCAK_(E712C), full length (natural protein, human, UniProt Q99661 1-725, looked up)
chain: B4 chain with E712C
notes: MCAK (Kif2c), human, residues 1-725, full length; Without DTT a disulphide between Cys712 and Cys287 is intended; also called full-length MCAK_(E712C); source: Sf9 (baculovirus), purified
B7: MCAK C-terminal tail (CT) domain, GST cleaved and removed (peptide, UniProt Q99661 700-725, looked up)
chain: VIKALRLAMQLEEQASRQISSKKRPQ
notes: MCAK (Kif2c) C-terminal tail (CT domain), human, residues 700-725 as stated; also called free CT domain; C terminus; source: E. coli BL21(DE3) Codon plus, purified as GST fusion, GST cleaved with GST-3C protease and removed
B8: GST-CT_(E712C) domain (domain or fragment, human, UniProt Q99661 700-725, looked up)
chain: VIKALRLAMQLECQASRQISSKKRPQ
notes: MCAK (Kif2c) CT domain, human, residues 700-725 as stated (the printed primers of the parent encode 701-725); Designed to form a disulphide bridge with Cys287 of the motor domain without DTT; source: E. coli BL21(DE3) Codon plus, purified (glutathione-sepharose, gel filtration)

Legend:
[1] = target: T1, His-MCAK motor region with the neck linker region (M) (human, UniProt Q99661 183-583); assay: pull-down; resin-based binding assay: GST-CT or GST-CT point mutants (GST as a control) on glutathione agarose beads; purified His-M, His-NM or cleaved CT domain added; Coomassie-stained gel; details: both partners purified
T1 construct: MCAK (Kif2c), human, neck linker region and motor region; the methods state residues 183-583, the results state 181-583; Cloned in pET3aTr; also called motor domain; MCAK motor domain; source: E. coli BL21(DE3) Codon plus, purified (Ni-NTA, gel filtration)

[2] = target: the molecule itself; assay: SEC; gel filtration of full-length MCAK proteins alone; elution compared with wild type full-length MCAK
[3] = target: T1, His-MCAK motor region with the neck …; assay: SEC-MALS; motor domain with CT domain; Superdex 200 10/300 GL; 2 mg/ml in 100 mM HEPES, pH 7.2, 150 mM NaCl; details: both partners purified
[4] = target: B5; assay: co-sedimentation; competition: 100 nM full-length MCAK_(S715E) with 2 μM taxol-stabilized microtubules and increasing concentration of cleaved free CT domain; western blot; details: both partners purified
[5] = target: T1, His-MCAK motor region with the neck …; assay: other fluorescence titration; intrinsic tryptophan/aromatic fluorescence (excitation 295 and 280 nm) of 1 μM motor domain, CT domain titrated 0 to 15,660 nM; 25°C; 100 mM HEPES, pH 7.4, 150 mM NaCl; motor pre-treated with EDTA to remove ADP; details: both partners purified
[6] = target: T1, His-MCAK motor region with the neck …; assay: SEC; analytical gel filtration of the motor with GST-CT_(E712C) under oxidizing conditions; fractions on Coomassie-stained SDS-PAGE; details: both partners purified

Binder	binding result [1]	binding result [2]	also measured
B1	binds	–	–
B2	binds	–	–
B3	binds	–	–
B4	–	binds	–
B5	–	binds	–
B6	–	binds	–
B7	–	–	stoichiometry N [3]: 0.5 CT domain per motor domain; binding result [4]: binds; Kd [5]: ~1100 nM
B8	–	–	stoichiometry N [6]: 0.5 CT domain per motor
